B1: BMPRII ectodomain, human IgG1‐Fc fusion (R&D Systems #811‐BR‐100/CF) (Fc fusion, UniProt Q13873 27-150, looked up)
chain: SQNQERLCAFKDPYQQDLGIGESRISHENGTILCSKGSTCYGLWEKSKGDINLVKQGCWSHIGDPQECHYEECVVTTTPPSIQNGTYRFCCCSTDLCNVNFTENFPPPDTTPLSPPHSFNRDET
notes: Bone morphogenetic protein receptor type II (BMPRII), ectodomain; 'human' in the sentence may qualify the IgG1 Fc only; also called BMP type II receptor; source: bought: R&D Systems (#811‐BR‐100/CF)
B2: processed BMP‐10 CPLX (tag‐free, HEK293) (complex, human)
chain 1: SPIMNLEQSPLEEDMSLFGDVFSEQDGVDFNTLLQSMKDEFLKTLNLSDIPTQDSAKVDPPEYMLELYNKFATDRTSMPSANIIRSFKNEDLFSQPVSFNGLRKYPLLFNVSIPHHEEVIMAELRLYTLVQRDRMIYDGVDRKITIFEVLESKGDNEGERNMLVLVSGEIYGTNSEWETFDVTDAIRRWQKSGSSTHQLEVHIESKHDEAEDASSGRLEIDTSAQNKHNPLLIVFSDDQSSDKERKEELNEMISHEQLPELDNLGLDSFSSGPGEEALLQMRSNIIYDSTARIRR
chain 2: NAKGNYCKRTPLYIDFKEIGWDSWIIAPPGYEAYECRGVCNYPLAEHLTPTKHAIIQALVHLKNSQKASKACCVPTKLEPISILYLDKGVVTYKFKYEGMAVSECGCR
modifications: N‐glycosylation
notes: Bone morphogenetic protein 10, human, prodomain (PD) up to the endogenous PPC cleavage site RIRR; calculated molecular weight without glycans 34.6 kDa; secreted through the BM40 signal peptide of the vector; Bone morphogenetic protein 10, human, growth factor (GF) released by PPC cleavage after RIRR; calculated molecular weight of the monomer 12.2 kDa; The SPR methods say only 'processed BMP‐10 …

Series [1] has as its target B2. Briefly: SPR; receptor ectodomains immobilised at 500 or 800 RUs on a CM5 chip by amine coupling; analytes 0 to 80 nM, 1:2 serial dilutions, 1× HBS‐EP; 1:1 model with mass transfer; apparent KD = kd/ka; three independent experiments. To be noted: both partners purified. Background: In SPR one partner is held on a chip, and binding of the other changes the refractive index at the surface.

Series [2] has as its target T1, ENG ectodomain (R&D Systems #1097‐EN‐025/CF) (human, UniProt P17813 26-586).
T1 construct: Endoglin (ENG), ectodomain; The methods read 'the human IgG1‐Fc‐fusion ectodomains of BMPRII, ALK‐1 as well as ENG'; also called endoglin; co‐receptor ENG; source: bought: R&D Systems (#1097‐EN‐025/CF); not shown: Fc (human IgG1)
T1 sequence (looked up): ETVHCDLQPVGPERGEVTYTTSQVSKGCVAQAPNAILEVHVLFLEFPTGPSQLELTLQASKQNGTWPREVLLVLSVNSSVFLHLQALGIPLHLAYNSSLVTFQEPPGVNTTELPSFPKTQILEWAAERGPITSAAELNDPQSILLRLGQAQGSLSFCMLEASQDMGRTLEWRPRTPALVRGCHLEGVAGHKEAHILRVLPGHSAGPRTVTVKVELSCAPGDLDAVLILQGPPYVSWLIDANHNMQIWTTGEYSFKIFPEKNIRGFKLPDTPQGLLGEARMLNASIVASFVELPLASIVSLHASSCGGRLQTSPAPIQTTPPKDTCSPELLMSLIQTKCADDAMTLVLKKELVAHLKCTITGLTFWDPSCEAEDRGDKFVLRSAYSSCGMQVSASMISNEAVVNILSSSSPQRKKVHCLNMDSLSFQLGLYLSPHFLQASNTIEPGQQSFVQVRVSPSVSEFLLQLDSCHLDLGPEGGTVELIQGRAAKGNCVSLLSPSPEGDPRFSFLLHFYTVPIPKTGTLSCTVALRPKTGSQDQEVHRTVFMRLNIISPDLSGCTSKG
The series is described as above. To be noted: both partners purified.

Series [3] concerns the molecule itself. Briefly: AUC; sedimentation velocity of elution fractions after SEC/MALS (S200 Increase, 1× PBS), 54 000 rpm, 280 nm, c(s) fit; PD dimer.
Series [4] has as its target B1. Nature of the series: SPR; receptor ectodomains immobilised at 500 or 800 RUs on a CM5 chip by amine coupling; analytes 0 to 80 nM, 1:2 serial dilutions, 1× HBS‐EP; 1:1 model with mass transfer; apparent KD = kd/ka; three independent experiments. To be noted: both partners purified.
Series [5] addresses T1, ENG ectodomain (R&D Systems …). Described as above. To be noted: both partners purified. The source holds these as a separate data set.
The target of the next series is T2, BMP‐9 PD (E. coli) (human, UniProt Q9UK05 23-319).
T2 construct: also called BMP‐9 prodomain; source: E. coli BL21‐CodonPlus, purified (Ni‐NTA)
T2 sequence (looked up): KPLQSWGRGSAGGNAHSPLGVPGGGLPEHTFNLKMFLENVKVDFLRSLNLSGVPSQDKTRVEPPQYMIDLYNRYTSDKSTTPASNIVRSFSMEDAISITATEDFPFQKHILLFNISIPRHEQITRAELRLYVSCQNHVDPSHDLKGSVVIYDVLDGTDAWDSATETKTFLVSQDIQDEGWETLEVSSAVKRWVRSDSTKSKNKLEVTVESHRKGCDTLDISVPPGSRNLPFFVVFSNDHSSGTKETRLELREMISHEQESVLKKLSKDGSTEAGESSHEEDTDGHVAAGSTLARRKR
Nature of the series: SPR; PDs of BMP‐9, BMP‐10 and N‐10/C‐9 fusion PD immobilised at 450 RUs on a CM5 chip by amine coupling; BMP‐10 GF 0 to 80 nM, 1:2 serial dilutions, 1× HBS‐EP; 1:1 model with mass transfer; apparent KD = kd/ka. To be noted: both partners purified.

For the next series, the target named is T3, BMP‐10 PD (E. coli) (human, UniProt O95393 22-316).
T3 construct: also called BMP‐10 prodomain; E. coli‐derived BMP‐10 PD; source: E. coli BL21‐CodonPlus, purified (Ni‐NTA)
T3 sequence (looked up): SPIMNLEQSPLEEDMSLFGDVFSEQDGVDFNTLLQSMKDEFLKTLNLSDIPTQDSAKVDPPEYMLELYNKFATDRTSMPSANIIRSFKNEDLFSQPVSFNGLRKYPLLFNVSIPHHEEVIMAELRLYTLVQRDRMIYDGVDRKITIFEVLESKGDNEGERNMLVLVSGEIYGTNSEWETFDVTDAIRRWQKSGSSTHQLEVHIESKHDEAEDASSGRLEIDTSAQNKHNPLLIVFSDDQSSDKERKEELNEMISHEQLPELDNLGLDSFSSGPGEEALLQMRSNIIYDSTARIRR
Described as above. To be noted: both partners purified.

As a reminder, the koff is the first-order rate constant of dissociation. Usually kon stands for the second-order rate constant of association. Turning to B1, in series [1], the Kd came out at 0.8 ± 0.1 nM, the koff was 0.00079 s⁻¹ and the kon turned out to be 940000 M⁻¹ s⁻¹.
In the case of B2, in series [2], the binding result is reported as “binds”.

B3: BMP‐10 PD (HEK293, from the processed BMP‐10 CPLX) (domain or fragment, human)
chain: SPIMNLEQSPLEEDMSLFGDVFSEQDGVDFNTLLQSMKDEFLKTLNLSDIPTQDSAKVDPPEYMLELYNKFATDRTSMPSANIIRSFKNEDLFSQPVSFNGLRKYPLLFNVSIPHHEEVIMAELRLYTLVQRDRMIYDGVDRKITIFEVLESKGDNEGERNMLVLVSGEIYGTNSEWETFDVTDAIRRWQKSGSSTHQLEVHIESKHDEAEDASSGRLEIDTSAQNKHNPLLIVFSDDQSSDKERKEELNEMISHEQLPELDNLGLDSFSSGPGEEALLQMRSNIIYDSTARIRR
modifications: N‐glycosylation
notes: Bone morphogenetic protein 10, human, prodomain (PD) up to the endogenous PPC cleavage site RIRR; band at 45 kDa, calculated molecular weight without glycans 34.6 kDa; The methods of SEC/MALS and AUC say only 'two fractions of BMP‐10'; also called separated BMP‐10 PD
Broadly, the stoichiometry N is the number of molecules, sites or subunits per partner or assembly. Turning to B3, in series [3], the “stoichiometry N” value came out at 2.

B4: BMP‐10 GF (R&D Systems #2926‐BP‐025/CF) (ligand, human, UniProt O95393 317-424, looked up)
chain: NAKGNYCKRTPLYIDFKEIGWDSWIIAPPGYEAYECRGVCNYPLAEHLTPTKHAIIQALVHLKNSQKASKACCVPTKLEPISILYLDKGVVTYKFKYEGMAVSECGCR
notes: Bone morphogenetic protein 10, human, growth factor (GF) moiety that follows the PPC cleavage site RIRR; calculated molecular weight of the monomer 12.2 kDa, dimer 24.4 kDa; Disulfide-linked GF dimer; also called BMP‐10 growth factor; BMP‐10 GF dimer; source: bought: R&D Systems (#2926‐BP‐025/CF); called commercially available HEK293‐derived
Regarding B4, the Kd in series [4] was 2.6 ± 0.6 nM; in series [5] it was 16.3 ± 2.9 nM; with BMP‐9 PD (E. coli), 10.4 ± 2.5 nM; with BMP‐10 PD (E. coli) it was 5.2 ± 0.7 nM. The koff in series [4] is 0.0017 s⁻¹; in series [5] it was 0.008 s⁻¹; with BMP‐9 PD (E. coli), 0.0024 s⁻¹; in the series with BMP‐10 PD (E. coli), 0.0024 s⁻¹. The kon in series [4] amounted to 690000 M⁻¹ s⁻¹; in series [5] it was 490000 M⁻¹ s⁻¹; with BMP‐9 PD (E. coli), 230000 M⁻¹ s⁻¹; with BMP‐10 PD (E. coli), 500000 M⁻¹ s⁻¹.
